Data taken from patent US20230167158A1.

Target: human CD3 on activated lymphocytes (human)
Assay: cell-based or functional assay

Substance | GFP positive cells after transduction of activated lymphocytes (GFP vector)
OKT3-CD8a-VSVG | > 50%
OKT3-VSVG | 7%
